{"source": "patent US20220146515A1", "about": "(XIAMEN INNODX BIOTECH, published 2022)", "binders": {"B1": {"name": "monoclonal antibody C9F2-2 (antibody, V domains shown)", "VH": "EVQLVESGGGLVKPGGSLKLSCAASGFAFSTYDMSWVRQTPEKRLEWVAYISPGGGATYYPDTVKGRFTISRDNAKNTLYLQMTSLKSEDTAMYYCAGRRDYYGMDYWGQGTSVTVSS", "VL": "DVVMTQTPLSLPVSLGDQASISCRSSQSLVHSNGNTYLHWYLQKPGQSPKLLIYKVSNRFSGVPDRFSGSGSGTDFTLKISRVEAEDLGVYFCSQSTHVPWTFGGGTKLEIK", "notes": "Mouse hybridoma antibody purified from ascites; the tie is indirect; also called hybridoma CCTCC NO: C2018183"}}, "assay_in_all_cases": "competition ELISA, antibody preincubated with target, AMH-coated plate", "key": {"[1]": {"biological_target": "T1, AMH truncated antigen 41-48 (human)", "T1 peptide": "EDLDWPPG", "description": "(§1) 1. AMH antigen was diluted with carbonic acid buffer (20 mmol/L CB, pH 9.6) and then coated on a polyvinyl chloride plate. In the pretreatment, the antibody purified by the protein A column and the synthesized AMH truncated antigen sequences (see Table 3 for each synthetic sequence) were subjected to proportion incubation (100 ng/ml antibody: 50 ug/ml truncated antigen) for 30 minutes, that were test samples; the control sample was 100 ng/ml antibody: PBS, incubation for 30 minutes, and then the test samples after incubation and the control sample were added to AMH antigen plate and incubated for 30 minutes, the plate was washed for 5 times, added with GAM-HRP (1/5000 dilution) and incubated for 30 minutes, the plate was washed for 5 times, and the substrate was added and incubated for 15 minutes. The values under wavelength of 450/620 were read by microplate reader, and the detected OD values were finally calculated and analyzed. The calculation formula was: (control sample OD value−test sample OD value)/control sample OD value, and the criterion for determination was as follows: more than 90%, which indicated a good competitive effect, showing that the antibody should recognize the epitope."}, "[2]": {"biological_target": "T2, AMH truncated antigen 34-41 (human)", "T2 peptide": "TSGLIFRE", "description": "as §1"}, "[3]": {"biological_target": "T3, AMH truncated antigen 31-41 (human)", "T3 peptide": "AVGTSGLIFRE", "description": "as §1"}, "[4]": {"biological_target": "T4, AMH truncated antigen 51-65 (human)", "T4 peptide": "QEPLCLVALGGDSNG", "description": "as §1"}, "[5]": {"biological_target": "T5, AMH truncated antigen 40-46 (human)", "T5 peptide": "REDLDWP", "description": "as §1"}, "[6]": {"biological_target": "T6, AMH truncated antigen 43-50 (human)", "T6 peptide": "LDWPPGSP", "description": "as §1"}, "[7]": {"biological_target": "T7, AMH truncated antigen 36-45 (human)", "T7 peptide": "GLIFREDLDW", "description": "as §1"}, "[8]": {"biological_target": "T8, AMH truncated antigen 41-49 (human)", "T8 peptide": "EDLDWPPGS", "description": "as §1"}, "[9]": {"biological_target": "T9, AMH truncated antigen 32-41 (human)", "T9 peptide": "VGTSGLIFRE", "description": "as §1"}, "[10]": {"biological_target": "T10, AMH truncated antigen 40-47 (human)", "T10 peptide": "REDLDWPP", "description": "as §1"}, "[11]": {"biological_target": "T11, AMH truncated antigen 33-41 (human)", "T11 peptide": "GTSGLIFRE", "description": "as §1"}, "[12]": {"biological_target": "T12, AMH truncated antigen 71-85 (human)", "T12 peptide": "RVVGALSAYEQAFLG", "description": "as §1"}, "[13]": {"biological_target": "T13, AMH truncated antigen 31-43 (human)", "T13 peptide": "AVGTSGLIFREDL", "description": "as §1"}, "[14]": {"biological_target": "T14, AMH truncated antigen 42-46 (human)", "T14 peptide": "DLDWP", "description": "as §1"}}}
{"binder": "B1", "values": [{"measurement": "percent inhibition", "setting": "[1]", "value": -1, "unit": "%"}, {"measurement": "percent inhibition", "setting": "[2]", "value": 3, "unit": "%"}, {"measurement": "percent inhibition", "setting": "[3]", "value": 10, "unit": "%"}, {"measurement": "percent inhibition", "setting": "[4]", "value": 9, "unit": "%"}, {"measurement": "percent inhibition", "setting": "[5]", "value": -2, "unit": "%"}, {"measurement": "percent inhibition", "setting": "[6]", "value": 17, "unit": "%"}, {"measurement": "percent inhibition", "setting": "[7]", "value": 94, "unit": "%"}, {"measurement": "percent inhibition", "setting": "[8]", "value": 3, "unit": "%"}, {"measurement": "percent inhibition", "setting": "[9]", "value": 9, "unit": "%"}, {"measurement": "percent inhibition", "setting": "[10]", "value": -19, "unit": "%"}, {"measurement": "percent inhibition", "setting": "[11]", "value": 9, "unit": "%"}, {"measurement": "percent inhibition", "setting": "[12]", "value": 21, "unit": "%"}, {"measurement": "percent inhibition", "setting": "[13]", "value": 25, "unit": "%"}, {"measurement": "percent inhibition", "setting": "[14]", "value": -10, "unit": "%"}]}
